Laboratory results taken from patent publication US6899878 (GENETICS INSTITUTE, dated 2005).
Residue numbers refer to the chain shown, from its start. Ends that are not written are not given here.

T1: IL-1-R intracellular ligand protein encoded by clone 19w (interaction trap prey) (human, UniProt Q92626 1304-1479)
T1 construct: Prey fusion expressed from pJG4-5 in yeast; believed to be a partial clone of a longer protein
T1 sequence: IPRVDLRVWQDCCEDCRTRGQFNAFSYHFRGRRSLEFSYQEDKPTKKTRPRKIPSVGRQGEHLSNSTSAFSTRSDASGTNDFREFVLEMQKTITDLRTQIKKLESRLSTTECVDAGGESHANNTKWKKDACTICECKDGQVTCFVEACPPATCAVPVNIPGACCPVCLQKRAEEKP

T2: IL-1-R intracellular ligand protein encoded by clone 14w (interaction trap prey) (human, UniProt P17655 450-700)
T2 construct: Prey fusion expressed from pJG4-5 in yeast
T2 sequence: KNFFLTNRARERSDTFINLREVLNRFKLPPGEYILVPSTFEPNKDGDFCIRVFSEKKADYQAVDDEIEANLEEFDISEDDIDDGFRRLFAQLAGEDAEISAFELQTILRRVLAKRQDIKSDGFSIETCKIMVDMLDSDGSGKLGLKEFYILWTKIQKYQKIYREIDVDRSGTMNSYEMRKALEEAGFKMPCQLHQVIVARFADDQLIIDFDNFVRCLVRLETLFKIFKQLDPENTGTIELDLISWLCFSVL

B1: IL-1 receptor p80 (type I) amino acids 477 to 527, wild-type bait from plasmid EG202-IL1R (477-527) (receptor, human, UniProt P14778 494-544, looked up)
chain: QDYEKMPESIKFIKQKHGAIRWSGDFTQGPQSAKTRFWKNVRYHMPVQRRS
modifications: also: fused to LexA (pEG202 bait), residues not given here
notes: range 477-527; positions may be shifted against the UniProt entry; also called WT; original bait; not shown: LexA, fusion partner of baits made in vector pEG202
B2: IL-1 receptor p80 (477-527) mutant bait K515R (receptor)
chain: B1 chain with K39R
modifications: also: fused to LexA (pEG202 bait), residues not given here
B3: IL-1 receptor p80 (477-527) mutant bait Y519S (receptor, human, UniProt P14778 494-544, looked up)
chain: B1 chain with Y43S
modifications: also: fused to LexA (pEG202 bait), residues not given here
notes: range 477-527; not shown: LexA, fusion partner of baits made in vector pEG202
B4: IL-1 receptor p80 (477-527) mutant bait W514A (receptor, human, UniProt P14778 494-544, looked up)
chain: B1 chain with W38A
modifications: also: fused to LexA (pEG202 bait), residues not given here
notes: as for B3
B5: IL-1 receptor p80 (477-527) mutant bait R518K (receptor, human, UniProt P14778 494-544, looked up)
chain: B1 chain with R42K
modifications: also: fused to LexA (pEG202 bait), residues not given here
notes: as for B3
B6: IL-1-R intracellular ligand protein encoded by clone 31w (interaction trap prey) (other, not shown: large carriers)
chain: KKGGKTEQDGYQKPTNKHFTQSPKKSVADLLGSFEGKRRLLLITAPKAENNMYVQQRDEYLESFCKMATRKISVITIFGPVNNSTMKIDHFQLDNEKPMRVVDDEDLVDQRLISELRKEYGMTYNDFFMVLTDVDLRVKQYYEVPITMKSVFDLIDTFQSRIKDMEKQKKEGIVCKEEVGGVLELFPINGSSVVEREDVPAHLVKDIRNYFQVSPEYFSMLLVGKDGNVKSWYPSPMWSMVIVYDLIDSMQLRRQEMAIQQSLGMRCQKMSMQAMVTIVTTKDTRMVTRMTTVIMRVITMDTLTEQKYVTLDSASFLCSC
notes: Prey fusion expressed from pJG4-5 in yeast; believed to be a partial clone of a longer protein
B7: bicoid (unrelated bait) (other, UniProt P09081 2-160, looked up)
chain: AQPPPDQNFYHHPLPHTHTHPHPHSHPHPHSHPHPHHQHPQLQLPPQFRNPFDLLFDERTGAINYNYIRPYLPNQMPKPDVFPSEELPDSLVMRRPRRTRTTFTSSQIAELEQHFLQGRYLTAPRLADLSAKLALGTAQVKIWFKNRRRRHKIQSDQHK

Experiments:
[1] = target: T1, IL-1-R intracellular ligand protein …; assay: yeast interaction trap, LacZ blueness on plates
Protocol: (§1) Mutations that abolish IL-1R signaling ere introduced into the original bait plasmid, EG202-IL-1R (477–527) (with following amino acid substitutions: F513A, W514A, K515R, R518K, and Y519S) and the ability of the IL-1R intracellular ligands to interact with these mutant proteins was tested in the interaction trap. EGY48 carrying pSH18-34 (lexAop-LacZ) were cotransformed with two plasmids: one carrying 14w, 19w or 31w; the other with bait, EG202-IL1R (477–527), either wild-type or one of the mutants, transformants were then streaked onto CM ura⁻his⁻trp⁻ plates containing galactose/raffinose and β-gal. The strength of interaction (as indicated by the number of "+" signs) was judged by the blueness in the plates (indicator of LacZ expression).

[2] = target: T2, IL-1-R intracellular ligand protein …; assay: yeast interaction trap, LacZ blueness on plates
Protocol: as §1

[3] = target: B2; assay: yeast interaction trap, LacZ blueness on plates
Protocol: as §1

[4] = target: B1; assay: yeast interaction trap, LacZ blueness on plates
Protocol: as §1

[5] = target: B7; assay: yeast interaction trap, bait specificity test
Description: (§2) A WI38 cDNA library was transformed into the reporter strain (EGY48/pSH18-34) containing the bait plasmid EG202-IL1R (477–527). 1.3 million primary transformants were harvested and 7 million colonies were screened. 192 galactose-dependent colonies were isolated. Among these, 51 clones were bait specific (i.e., interacted specifically with the original bait, but not with an unrelated bait, bicoid). These clones were then subjected to DNA sequence analysis. Clones 19w was isolated 6, times, clone 31w twice and clone 14w once.

[6] = target: T1, IL-1-R intracellular ligand protein …; assay: yeast interaction trap, bait specificity test
Description: as §2

[7] = target: T2, IL-1-R intracellular ligand protein …; assay: yeast interaction trap, bait specificity test
Description: as §2

binding result [1]	binding result [2]	Binder	other results
binds	binds	B1	–
binds	binds	B2	–
–	binds	B3	–
binds	binds	B4	–
–	binds	B5	–
–	–	B6	binding result [3]: binds; binding result [4]: binds; binding result [5]: no binding
–	–	B7	binding result [6]: no binding; binding result [7]: no binding
